Data set [1] deals with T1, RadA (Sms) wild type (Escherichia coli, UniProt P24554 1-460).
T1 sequence: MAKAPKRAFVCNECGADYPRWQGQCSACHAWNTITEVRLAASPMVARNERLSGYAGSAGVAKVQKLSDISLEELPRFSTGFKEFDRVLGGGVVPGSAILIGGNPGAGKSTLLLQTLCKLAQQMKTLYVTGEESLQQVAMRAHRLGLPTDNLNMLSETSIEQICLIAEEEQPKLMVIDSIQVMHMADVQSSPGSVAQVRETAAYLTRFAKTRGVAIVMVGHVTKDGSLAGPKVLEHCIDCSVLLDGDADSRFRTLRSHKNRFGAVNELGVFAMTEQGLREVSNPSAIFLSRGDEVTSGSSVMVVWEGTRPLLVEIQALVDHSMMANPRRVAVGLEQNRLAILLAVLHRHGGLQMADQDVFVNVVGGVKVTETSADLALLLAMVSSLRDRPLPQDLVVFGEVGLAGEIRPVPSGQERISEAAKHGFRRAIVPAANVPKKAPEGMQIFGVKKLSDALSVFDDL
Description: competition; unlabeled competitor vs labeled poly(dT)30, 1 mM ADP; 50 mM Tris-HCl pH 7.5, 10 mM MgCl2, 0.1 mM EDTA, 75 mM NaCl, 5 mM DTT, 100 ug/ml BSA, 1 mM nucleotide, 100 fmol DNA, 37 C for 20-30 min; 6% TBE polyacrylamide gel at room temperature. The conditions noted are these: protein: recombinant; tags: eXact tag cleaved; 2 extra N-terminal residues Thr-Ser remain; chain copies: 6.

Data set [2] has as its target T1, RadA (Sms) wild type. The data set is described as follows: EMSA; 1 mM ADP (standard); apparent; Hill coefficient 1.5; 50 mM Tris-HCl pH 7.5, 10 mM MgCl2, 0.1 mM EDTA, 75 mM NaCl, 5 mM DTT, 100 ug/ml BSA, 1 mM nucleotide, 100 fmol DNA, 37 C for 20-30 min; 6% TBE polyacrylamide gel at room temperature. The following applies: protein: recombinant; tags: eXact tag cleaved; 2 extra N-terminal residues Thr-Ser remain; chain copies: 6. Background: Mobility shift assays separate free from complexed probe on a gel.

B1: poly(dA)33 (ssDNA)
DNA: AAAAAAAAAAAAAAAAAAAAAAAAAAAAAAAAA
Turning to B1, the binding result with RadA (Sms) wild type [1] is “no binding”.

B2: poly(dT)30 (ssDNA)
DNA: TTTTTTTTTTTTTTTTTTTTTTTTTTTTTT
Regarding B2, the Kd with RadA (Sms) wild type [2] came to 110 ± 14 nM.

Values taken from article PMC4786428, “Recombinational branch migration by the RadA/Sms paralog of RecA in Escherichia coli”.
